Results reported in paper PMC9668737, “Herpes simplex virus 1 protein pUL21 alters ceramide metabolism by activating the interorganelle transport protein CERT” (The Journal of Biological Chemistry, 2022).
Substitutions are numbered along the chain they refer to.

How the values were obtained:
[1] = target: T1, StrepII-CERT^P (UniProt Q9Y5P4-2 1-598, hyperphosphorylated (sites not given)); test: cell-based or functional assay
T1 sequence (looked up): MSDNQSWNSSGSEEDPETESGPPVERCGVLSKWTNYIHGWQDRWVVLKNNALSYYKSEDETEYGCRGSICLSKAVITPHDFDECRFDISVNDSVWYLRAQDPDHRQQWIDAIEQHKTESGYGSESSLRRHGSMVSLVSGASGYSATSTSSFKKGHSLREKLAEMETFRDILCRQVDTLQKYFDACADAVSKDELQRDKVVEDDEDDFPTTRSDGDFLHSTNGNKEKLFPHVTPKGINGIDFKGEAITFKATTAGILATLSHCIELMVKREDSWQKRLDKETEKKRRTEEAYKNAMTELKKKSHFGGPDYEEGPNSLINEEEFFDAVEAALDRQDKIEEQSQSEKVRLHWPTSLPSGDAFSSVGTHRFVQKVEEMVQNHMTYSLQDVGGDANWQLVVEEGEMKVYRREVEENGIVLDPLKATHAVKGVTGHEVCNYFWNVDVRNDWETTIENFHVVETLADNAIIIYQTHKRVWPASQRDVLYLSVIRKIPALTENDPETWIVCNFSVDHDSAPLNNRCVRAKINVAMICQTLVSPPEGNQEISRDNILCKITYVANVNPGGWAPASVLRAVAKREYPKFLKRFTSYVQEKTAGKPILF

[2] = target: T2, StrepII-CERTL^P (hyperphosphorylated StrepII-tagged CERTL) (human, UniProt Q9Y5P4-1 1-624, hyperphosphorylated (sites not given)); test: ITC; 25 °C; 20 mM Tris pH 8.5, 500 mM NaCl, 0.5 mM TCEP; CERTL forms in the syringe titrated into pUL21 forms in the cell; one-site binding model; conditions: both partners purified
T2 construct: human CERTL, UniProt Q9Y5P4-1, synthetic gene; Trimer by SEC-MALS (observed 184.3 kDa, expected 215.7 kDa); not shown: StrepII, N-terminal, kept
T2 sequence (looked up): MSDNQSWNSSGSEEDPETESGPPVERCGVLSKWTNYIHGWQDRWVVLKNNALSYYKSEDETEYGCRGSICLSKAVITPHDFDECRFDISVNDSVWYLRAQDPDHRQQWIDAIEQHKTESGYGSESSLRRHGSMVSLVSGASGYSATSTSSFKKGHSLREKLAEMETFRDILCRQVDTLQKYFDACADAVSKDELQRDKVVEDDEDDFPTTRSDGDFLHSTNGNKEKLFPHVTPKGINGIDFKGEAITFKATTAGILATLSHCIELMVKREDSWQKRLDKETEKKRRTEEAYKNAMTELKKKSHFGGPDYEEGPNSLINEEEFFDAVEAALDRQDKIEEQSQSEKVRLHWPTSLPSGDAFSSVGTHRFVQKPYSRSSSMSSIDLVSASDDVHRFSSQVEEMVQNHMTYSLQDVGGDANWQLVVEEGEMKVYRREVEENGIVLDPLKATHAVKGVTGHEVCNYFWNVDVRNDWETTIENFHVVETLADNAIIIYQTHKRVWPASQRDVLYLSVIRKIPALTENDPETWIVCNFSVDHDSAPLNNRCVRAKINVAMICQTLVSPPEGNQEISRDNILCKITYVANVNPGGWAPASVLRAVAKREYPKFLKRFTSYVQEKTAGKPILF

[3] = target: T3, StrepII-CERTL^S132A (human, UniProt Q9Y5P4-1 1-624, S132A, hypophosphorylated); test: as above; conditions: both partners purified
T3 construct: human CERTL, UniProt Q9Y5P4-1, synthetic gene, S132A; Trimer by SEC-MALS (observed 199.2 kDa); also called constitutively hypophosphorylated form of CERTL; source: Freestyle 293F, stably transfected, doxycycline-induced, purified (StrepTrap HP, Superose 6 SEC); not shown: StrepII, N-terminal, kept
T3 sequence (looked up): T2 sequence (looked up) with S132A

B1: pUL21-H6 (natural protein)
chain: MELSYATTMHYRDVVFYVTTDRNRAYFVCGGCVYSVGRPCASQPGEIAKFGLVVRGTGPDDRVVANYVRSELRQRGLQDVRPIGEDEVFLDSVCLLNPNVSSELDVINTNDVEVLDECLAEYCTSLRTSPGVLISGLRVRAQDRIIELFEHPTIVNVSSHFVYTPSPYVFALAQAHLPRLPSSLEALVSGLFDGIPAPRQPLDAHNPRTDVVITGRRAPRPIAGSGAGSGGAGAKRATVSEFVQVKHIDRVGPAGVSPAPPPNNTDSSSLVPGAQDSAPPGPTLRELWWVFYAADRALEEPRADSGLTREEVRAVRGFREQAWKLFGSAGAPRAFIGAALGLSPLQKLAVYYYIIHRERRLSPFPALVRLVGRYTQRHGLYVPRPDDPVLADAINGLFRDALAAGTTAEQLLMFDLLPPKDVPVGSDVQADSTALLRFIESQRLAVPGGVISPEHVAYLGAFLSVLYAGRGRMSAATHTARLTGVTSLVLAVGDVDRLSAFDRGAAGAASRTRAAGYLDVLLTVRLARSQHGQSV
notes: HSV-1 pUL21, UniProt F8RG07; some paragraphs print H6-pUL21; also called H6-pUL21; WT pUL21; source: E. coli T7 Express lysY/Iq, purified (Ni-NTA, SEC); not shown: His6, C-terminal, kept
For B1, the “EC50 of pUL21-H6 (62.5 nM to 4 μM) for accelerating GST-PP1-mediated dephosphorylation of 0.5 μM CERT^P in vitro, all proteins purified, 25 nM GST-PP1γ, 30 min at 30 °C” value [1] was 0.491 μM, the Kd [2] was 773 nM and the Kd [3] was 642 nM.
